According to paper PMC11018626, “Sm-like protein Rof inhibits transcription termination factor ρ by binding site obstruction and conformational insulation” (Nature Communications, 2023):
Where a chain is given by its changes, count along the chain named. Names may count otherwise.

Experiments:
[1] = target: T1, Transcription termination factor ρ K115E (E. coli) (E. coli, UniProt P0AG30 1-419, K115E); test: SEC; analytical SEC, Superdex S200 PC 3.2 column, 5 µM ρ and 90 µM Rof/variants mixed in reaction buffer (20 mM Tris-HCl pH 8.0, 120 mM KOAc, 5 mM Mg(OAc)2, 2 mM DTT), 32 °C 10 min, run at 4 °C; fractions analysed by SDS-PAGE; conditions: both partners purified
T1 construct: Transcription termination factor Rho, E. coli, with K115E

[2] = target: T2, Transcription termination factor ρ F89S (E. coli) (E. coli, UniProt P0AG30 1-419, F89S); test: as above; conditions: both partners purified
T2 construct: Transcription termination factor Rho, E. coli, with F89S

[3] = target: Transcription termination factor ρ, wild type (E. coli) (E. coli, UniProt P0AG30 1-419); test: cell-based or functional assay
[4] = target: T3, Rho (transcription termination factor) (Escherichia coli, UniProt P0AG30 1-419); test: cryo-EM; ADP-BeF3; closed ring, 2.9 Å; Anisotropy: 20 mM Na-HEPES pH 7.5, 150 mM KCl, 5% glycerol, 5 mM MgCl2, 0.5 mM TCEP; 5 µM FAM-dC15 or 2 µM FAM-rU12; temperature not stated; conditions: protein: recombinant; chain copies: 6; boxB hairpin
Rho R88E = Rho R88E (Escherichia coli, UniProt P0AG30 1-419, R88E); test: analytical SEC; Anisotropy: 20 mM Na-HEPES pH 7.5, 150 mM KCl, 5% glycerol, 5 mM MgCl2, 0.5 mM TCEP; 5 µM FAM-dC15 or 2 µM FAM-rU12; temperature not stated; conditions: protein: recombinant; chain copies: 6; boxB hairpin
Rho F89S = Rho F89S (Escherichia coli, UniProt P0AG30 1-419, F89S); test: as above; conditions: protein: recombinant; chain copies: 6; boxB hairpin
[5] = target: T3, Rho (transcription termination factor); test: fluorescence anisotropy; 5 mM Mg2+; no Rof; PBS binding; Anisotropy: 20 mM Na-HEPES pH 7.5, 150 mM KCl, 5% glycerol, 5 mM MgCl2, 0.5 mM TCEP; 5 µM FAM-dC15 or 2 µM FAM-rU12; temperature not stated; conditions: protein: recombinant; chain copies: 6; label: 5'-FAM; single strand
[6] = target: T3, Rho (transcription termination factor); test: fluorescence anisotropy; 2 mM ADP-BeF3, 10 µM unlabeled dC15 blocking PBS; SBS binding / ring closure; Anisotropy: 20 mM Na-HEPES pH 7.5, 150 mM KCl, 5% glycerol, 5 mM MgCl2, 0.5 mM TCEP; 5 µM FAM-dC15 or 2 µM FAM-rU12; temperature not stated; conditions: protein: recombinant; chain copies: 6; label: 5'-FAM; single strand

B1: Rof, wild type, tag-less (E. coli) (natural protein)
chain: MNDTYQPINCDDYDNLELACQHHLMLTLELKDGEKLQAKASDLVSRKNVEYLVVEAAGETRELRLDKITSFSHPEIGTVVVSES
notes: Rof (YaeO), E. coli; codon-optimised rof gene; the C-terminal residue is printed as S84 (84-residue form); the residue numbers used (I8 to S84) fit the 84-residue form; also called Rof^wt; ecRof; source: E. coli RIL (BL21), purified (Ni2+-NTA, TEV protease, Superdex 75)
binding result [1]: binds
binding result [2]: binds

B2: Rof E17A (E. coli) (natural protein)
chain: B1 chain with E17A
transcripts terminated by ρ in vitro (λ tR1 template; 25 nM ρ, 5 µM Rof variant); 87% in the absence of Rof [3]: 25%

B3: Rof D14A (E. coli) (natural protein)
chain: B1 chain with D14A
transcripts terminated by ρ in vitro (λ tR1 template; 25 nM ρ, 5 µM Rof variant); 87% in the absence of Rof [3]: 86%

B4: Rof Y13A (E. coli) (natural protein)
chain: B1 chain with Y13A
transcripts terminated by ρ in vitro (λ tR1 template; 25 nM ρ, 5 µM Rof variant); 87% in the absence of Rof [3]: 90%

B5: rut RNA (lambda tR1) (structured_RNA)
RNA: GGGAUAACCCCGCUCUUACACAUUCCAGCCCUGAAAAAGGGCAUCAAAUUAAACCACACCUAUGGUGUAUGUCAAAUUAAACCACA
binding result [4]: binds
binding result (Rho R88E): no binding
binding result (Rho F89S): binds

CCCCCCCCCCCCCCC (ssDNA) [dC15]
Kd [5]: 1000 nM

UUUUUUUUUUUU (ssRNA) [rU12]
binding result [6]: binds
